Columns and labels:
[1] = molecular target: T1, prostate-specific membrane antigen (PSMA), on cells (3T3-PSMA, C4-2, LNCaP) (Homo sapiens (Human), UniProt Q04609 1-750); experiment: cell-based or functional assay
[2] = molecular target: T1, prostate-specific membrane antigen …; experiment: cell-based or functional assay; remark: listed apart in the source

T1 sequence (Q04609 whole entry): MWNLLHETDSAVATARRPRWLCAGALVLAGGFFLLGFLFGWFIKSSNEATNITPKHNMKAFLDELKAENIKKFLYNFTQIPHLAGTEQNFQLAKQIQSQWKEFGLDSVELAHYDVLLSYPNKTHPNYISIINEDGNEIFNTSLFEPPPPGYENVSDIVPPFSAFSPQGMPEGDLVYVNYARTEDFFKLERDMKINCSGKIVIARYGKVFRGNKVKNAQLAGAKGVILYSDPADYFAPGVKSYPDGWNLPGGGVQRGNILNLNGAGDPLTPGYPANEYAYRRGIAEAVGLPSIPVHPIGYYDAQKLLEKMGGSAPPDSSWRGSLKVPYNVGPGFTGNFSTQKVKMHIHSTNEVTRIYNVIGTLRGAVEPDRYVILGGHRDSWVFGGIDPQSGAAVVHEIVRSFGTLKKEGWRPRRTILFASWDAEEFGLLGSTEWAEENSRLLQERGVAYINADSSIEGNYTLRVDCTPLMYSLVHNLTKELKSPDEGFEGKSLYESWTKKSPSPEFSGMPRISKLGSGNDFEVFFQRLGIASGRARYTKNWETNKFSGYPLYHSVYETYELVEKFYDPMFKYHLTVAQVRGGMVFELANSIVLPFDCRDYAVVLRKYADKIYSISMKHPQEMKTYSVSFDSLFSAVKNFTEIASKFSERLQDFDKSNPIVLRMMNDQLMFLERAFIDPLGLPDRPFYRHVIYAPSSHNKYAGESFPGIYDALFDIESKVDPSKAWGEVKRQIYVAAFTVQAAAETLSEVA

Binder | in vitro cytotoxicity IC50 on 3T3-PSMA cells (Alamar Blue, 4 days) [1] [pM] | in vitro cytotoxicity IC50 on C4-2 cells (Alamar Blue, 4 days) [1] [pM] | in vitro cytotoxicity IC50 on LNCaP cells (Alamar Blue, 4 days) [1] [pM] | in vitro potency IC50 on C4-2 cells (Alamar Blue, 4 days) [2] [pM]
PSMA ADC (AB-PG1-XG1-006 conjugated to maleimidocaproyl-valine-citrulline-p-aminobenzylcarbamate-monomethyl auristatin E), Example 1 (antibody, V domains shown, vcMMAE on cysteine thiols of reduced disulfides; 3.0-3.5 drugs per mAb in total) VH: QVQLVESGGGVVQPGRSLRLSCAASGFAFSRYGMHWVRQAPGKGLEWVAVIWYDGSNKYYADSVKGRFTISRDNSKNTQYLQMNSLRAEDTAVYYCARGGDFLYYYYYGMDVWGQGTTVTVSS VL: DIQMTQSPSSLSASVGDRVTITCRASQGISNYLAWYQQKTGKVPKFLIYEASTLQSGVPSRFSGGGSGTDFTLTISSLQPEDVATYYCQNYNSAPFTFGPGTKVDIK | 208 | 65 | 83 | –
PSMA mAb vcMMAF (conjugate 699028B), Example 2 (antibody, V domains shown, vcMMAF via thioether on interchain cysteine thiols; 4.4 drugs per mAb in total) VH: QVQLVESGGGVVQPGRSLRLSCAASGFAFSRYGMHWVRQAPGKGLEWVAVIWYDGSNKYYADSVKGRFTISRDNSKNTQYLQMNSLRAEDTAVYYCARGGDFLYYYYYGMDVWGQGTTVTVSS VL: DIQMTQSPSSLSASVGDRVTITCRASQGISNYLAWYQQKTGKVPKFLIYEASTLQSGVPSRFSGGGSGTDFTLTISSLQPEDVATYYCQNYNSAPFTFGPGTKVDIK | – | – | – | 11
PSMA mAb mcMMAF (conjugate 699028C), Example 2 (antibody, V domains shown, mcMMAF via thioether on interchain cysteine thiols; 4.4 drugs per mAb in total) VH: QVQLVESGGGVVQPGRSLRLSCAASGFAFSRYGMHWVRQAPGKGLEWVAVIWYDGSNKYYADSVKGRFTISRDNSKNTQYLQMNSLRAEDTAVYYCARGGDFLYYYYYGMDVWGQGTTVTVSS VL: DIQMTQSPSSLSASVGDRVTITCRASQGISNYLAWYQQKTGKVPKFLIYEASTLQSGVPSRFSGGGSGTDFTLTISSLQPEDVATYYCQNYNSAPFTFGPGTKVDIK | – | – | – | 42
PSMA mAb vcMMAE (conjugate 699028A), Example 2 (antibody, V domains shown, vcMMAE via thioether on interchain cysteine thiols; 4.3 drugs per mAb in total) VH: QVQLVESGGGVVQPGRSLRLSCAASGFAFSRYGMHWVRQAPGKGLEWVAVIWYDGSNKYYADSVKGRFTISRDNSKNTQYLQMNSLRAEDTAVYYCARGGDFLYYYYYGMDVWGQGTTVTVSS VL: DIQMTQSPSSLSASVGDRVTITCRASQGISNYLAWYQQKTGKVPKFLIYEASTLQSGVPSRFSGGGSGTDFTLTISSLQPEDVATYYCQNYNSAPFTFGPGTKVDIK | – | – | – | 60

Source: US20210023094A1 (PSMA DEVELOPMENT, published 2021)
